One test deals with CFP-vinculin (UniProt P18206). The experiment in a line: FRET or BRET; u-adFRET (acceptor-depletion FRET with linear spectral unmixing) in U251MG cells co-transfected with YFP (Venus) acceptor and CFP donor fusions, fixed in 4% paraformaldehyde; FRET efficiency by region of the cell (cytosol, peripheral, focal adhesion).
The next test deals with CD44-CFP (UniProt P16070). Described as above.
Sequence of UniProt P16070 (P16070 21-742): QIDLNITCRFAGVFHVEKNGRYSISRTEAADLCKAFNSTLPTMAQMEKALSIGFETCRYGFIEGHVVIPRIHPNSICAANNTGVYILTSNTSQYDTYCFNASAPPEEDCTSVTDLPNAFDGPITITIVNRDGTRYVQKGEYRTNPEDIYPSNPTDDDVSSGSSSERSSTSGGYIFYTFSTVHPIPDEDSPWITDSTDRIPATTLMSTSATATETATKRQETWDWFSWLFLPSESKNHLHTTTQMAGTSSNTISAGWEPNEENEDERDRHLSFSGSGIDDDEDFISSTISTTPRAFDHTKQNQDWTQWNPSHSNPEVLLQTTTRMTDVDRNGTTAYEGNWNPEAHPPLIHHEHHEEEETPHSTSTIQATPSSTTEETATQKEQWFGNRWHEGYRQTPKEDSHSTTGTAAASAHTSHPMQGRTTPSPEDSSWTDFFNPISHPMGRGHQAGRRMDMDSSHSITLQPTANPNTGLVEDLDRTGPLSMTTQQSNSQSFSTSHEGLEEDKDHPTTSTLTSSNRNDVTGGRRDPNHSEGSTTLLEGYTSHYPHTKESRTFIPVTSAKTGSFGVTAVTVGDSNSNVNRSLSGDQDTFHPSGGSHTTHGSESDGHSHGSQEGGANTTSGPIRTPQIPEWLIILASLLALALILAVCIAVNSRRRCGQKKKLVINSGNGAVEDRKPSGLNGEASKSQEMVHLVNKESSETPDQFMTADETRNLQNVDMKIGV

Sequence of UniProt P18206 (P18206 whole entry, the tested form may be a part): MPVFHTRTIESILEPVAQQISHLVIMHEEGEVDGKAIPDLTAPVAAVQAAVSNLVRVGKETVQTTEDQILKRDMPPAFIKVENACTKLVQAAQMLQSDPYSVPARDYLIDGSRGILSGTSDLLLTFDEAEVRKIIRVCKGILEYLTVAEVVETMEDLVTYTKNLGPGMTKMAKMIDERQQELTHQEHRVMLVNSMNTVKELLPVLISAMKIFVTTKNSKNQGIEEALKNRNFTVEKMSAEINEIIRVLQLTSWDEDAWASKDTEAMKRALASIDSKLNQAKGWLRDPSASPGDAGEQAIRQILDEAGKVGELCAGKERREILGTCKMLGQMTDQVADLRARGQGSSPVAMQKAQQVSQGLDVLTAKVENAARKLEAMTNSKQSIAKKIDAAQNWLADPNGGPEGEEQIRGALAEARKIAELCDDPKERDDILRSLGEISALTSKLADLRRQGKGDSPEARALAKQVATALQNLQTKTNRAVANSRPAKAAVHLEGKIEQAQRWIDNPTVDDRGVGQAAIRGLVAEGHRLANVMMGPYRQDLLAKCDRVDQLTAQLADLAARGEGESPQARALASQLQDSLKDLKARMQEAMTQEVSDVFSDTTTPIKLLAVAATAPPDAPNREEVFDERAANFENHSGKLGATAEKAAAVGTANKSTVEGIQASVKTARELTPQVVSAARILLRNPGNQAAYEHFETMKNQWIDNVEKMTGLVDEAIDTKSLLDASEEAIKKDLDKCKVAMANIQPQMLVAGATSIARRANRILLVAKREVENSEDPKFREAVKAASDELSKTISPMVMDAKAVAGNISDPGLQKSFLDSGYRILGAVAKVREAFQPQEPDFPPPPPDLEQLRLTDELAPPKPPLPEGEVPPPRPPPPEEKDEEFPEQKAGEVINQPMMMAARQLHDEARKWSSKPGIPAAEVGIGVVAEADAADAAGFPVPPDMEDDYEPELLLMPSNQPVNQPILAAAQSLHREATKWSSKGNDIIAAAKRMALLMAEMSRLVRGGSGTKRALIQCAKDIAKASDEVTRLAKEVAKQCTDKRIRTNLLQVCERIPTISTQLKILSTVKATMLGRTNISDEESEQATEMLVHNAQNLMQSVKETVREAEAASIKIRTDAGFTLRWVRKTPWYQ

Turning to “YFP-hMena (human Mena fused to monomeric Venus) (from UniProt Q8N8S7 1-591) (natural protein)”, the FRET efficiency (FA, focal adhesion) with CFP-vinculin stood at 19. In the test with CD44-CFP, the FRET efficiency (cytosol) was -7 and the FRET efficiency (peripheral) was -2.

These data come from paper PMC2651628.
